This is an account of results in the domain aggregation screens of Martell et al. (2025).

A short description of the series: soluble fraction after stress (log2 fold change); higher = more stays soluble; pooled small domains, quantitative proteomics. The settings on record: stress: 50 degC. An outline of the steps:
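The measure of aggregation propensity here is the base-two logarithm of the fold change in the soluble amount of each protein after stress. A higher value means more of that protein stays in solution. Stress was applied at 50°C to pooled libraries of small protein domains, read out by high-throughput quantitative proteomics.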
“HMAEGPYSGKKVEKYPGGMEKRETMYSEGKLTRVTEFHQSGQKKMEVKVDANGQWKRLYWDNNGNPT”: the “soluble fraction (log2)” value turned out to be 0.07.

On to “HMAEIIVHEINRHLGESDEPVEFPEERREEAVAELLKNFHNDDAFRKMDDGKYEVALDGEAVREAARSLLA”, for which the “soluble fraction (log2)” value came out at 0.207.

With “HMAELTTVQAADILHVSRPFLIKLLDEGQIPYHRVGKHRRIRMEDVMNYKRAIDQQREAVLDQLVAEA”, the “soluble fraction (log2)” value was -0.0408.

Take “HMAEMLQDVLNMLSAKDREILVRYYYYYESVKQVAAEMQMSESAVKMRMSRARKKMQQELIDKG”: the “soluble fraction (log2)” value was -3.59.

Take “HMAEPAEDLLSLEGMDKGLAYQLASNGVVTREDLAELATDDLLEIREMDAEQAAALIMKAREHWFEAEQQ”: the “soluble fraction (log2)” value was 0.211.

Consider “HMAEPEALLAMAQRILGEEVAQSLFQGAAREQGKEGYLPDPTPAFLDALEARLSGSVGAATAHAMISQLVG”, for which the “soluble fraction (log2)” value was -0.0483.

In the case of “HMAEPSTSYTQFMDQAKEGKIKRVDVQGRTLTVTPTEGATYKITAPGDLWMVEDLRKAGVQVYGQP”, the “soluble fraction (log2)” value amounted to 0.207.

“HMAEPYDERKVMEQMIPKGKNTIVAHLGHLKDHGETGYLQEALSYLRERESELGFDLKEVRALVHN”: the “soluble fraction (log2)” value stood at 0.251.

As for “HMAEQVLHQKLAARRKELNSLVAQVARVRGIPHSHVHSGLRREAGGPPLAQATTDQVEARISLARKWLRA”, the “soluble fraction (log2)” value was -0.728.

For the sequence “HMAERLQARIDAPGVRLDKALAETFPTLSRARLQALLADGAVTRDGQTVSNGSAKAQPGLYVVALPPVA”, the “soluble fraction (log2)” value turned out to be 0.381.

“HMAESNQIQLSDVREALNMIGPASWLDLVHYLDTGKGRGGQRLRRMLKSLSRSGEIELVARGTYQITDN”: the “soluble fraction (log2)” value is -0.422.

Regarding “HMAEVALFVNGSDVNLRSGPGQESTRVIGSLNLGDEVRIKSQNGQWREVYVPKTRQVGWVAHWLLSEAPP”, the “soluble fraction (log2)” value is 0.192.

With “HMAEVPDLRNKTQQEAEAELTNHNLKLGNVTEEYSATVEAGRVISQSTSYGTKVLEGSSVDITISKGPEPT”, the “soluble fraction (log2)” value was -0.0123.

With “HMAEWLFDARKIPDEVMNYLRRIAVQAIEEKHYSPELVADLLGISRSSIYDWLNWYRNGGEEDLDTRKA”, the “soluble fraction (log2)” value is -0.613.

“HMAFAQMAQEAAKGKDDFNDLRQEMEAVIKEQPHILLMAQFGQNPYEIAYQEAKRRKAQDQQQQQ”: the “soluble fraction (log2)” value is 0.288.

Turning to “HMAFGTGTVTASSLRVREDASTSAATLDTLSKGSKVSVLADEQDGFYKVQIGEQVGYMSAEYLDVTE”, the “soluble fraction (log2)” value was determined as 0.0904.

For the sequence “HMAFKNGLLQTSKKVTLVRKVDGVTMRFDSLRAASVFLGRNKGYLSNVIKNGRTLDNYEIVVGE”, the “soluble fraction (log2)” value is -0.991.

For the sequence “HMAFRIGGFVQEGSVVRQQDGGTVRFEVTDTAHSVPVTYKGSLPDLFKEGKGVVAQGKLMNGTFVADQVLA”, the “soluble fraction (log2)” value is -0.0129.

For “HMAGATDTVRNLLERQIREGELLPGQRLPTEPELAARLGVSRNSLREALQSLEDSGLIVKRHGIGTFVTE”, the “soluble fraction (log2)” value is 0.0848.

As for “HMAGLELVVTREQAGRTVKSLLRGELGISTALMGRLKRTGTGLTVNGTRVFTNAVLREGDRLAVDLDAAE”, the “soluble fraction (log2)” value was -0.606.

Take “HMAGLKERLFYFIEYKGLTVQSFEKTVGLSNGAVSKMGDNTRRSTIDKISNFFGDLNKNWLLTGEGEMLI”: the “soluble fraction (log2)” value was -0.99.

As for “HMAGRKMMVMANNLSVRKSANSLSEKLADLSRGDTVEYISSTNGWNKVRYKGQIGYVSSYYLKDTGEEVE”, the “soluble fraction (log2)” value was -0.0409.

With “HMAGTKRAENIEIQKLTEVLEARLDSVGFFWPDHKAESMIMTLRNMISRLPLTEADVRVFHGIIKSLADK”, the “soluble fraction (log2)” value was -0.527.

For “HMAGTWQDQGNGQWKYQNDDGSYATGWIEDSGKSYYLDANGIMLANTTTPDGKQVGPDGALIP”, the “soluble fraction (log2)” value is -0.141.

For the sequence “HMAHETIDVAALRVGMFVQLDLGWLSHPFPLSSFRISSEDQIATIRALGLKRVRWSSEQSDS”, the “soluble fraction (log2)” value was -4.29.

As to “HMAHPRTHEALNPLWEKYLGPNAGNDFFLSGGTSLKALMFLKDLEKTLNKRIAIHAFFKDPTYEHVVSD”, the “soluble fraction (log2)” value is -0.683.

On to “HMAHTGGNTLTREKAVSVRSASDALLFEIHWNETPREDILSTREEKVDGKTYSIITIRTGKGREDHYYLLS”, for which the “soluble fraction (log2)” value is -0.29.

For the sequence “HMAHYPGKVNNELVEFIRSEQRKTPHMTLTGLNRKLQRTYDLTLSESTVRKLVEAETILPLAREPD”, the “soluble fraction (log2)” value is -0.0739.

“HMAIDLPVTTVNGKDYYYYDVQPKETIFSLSQRLGISREEIISYNPGVDGGLKAYTRLYFPVESGL”: the “soluble fraction (log2)” value was -0.201.

Consider “HMAIDLSLIPGNLLRELHGAVEDGDMYRIRELIRSISAVDEKVGKELLLLAERYDYERLLELVND”, for which the “soluble fraction (log2)” value was -0.384.

Regarding “HMAIDWVQIKAEYISGTMSASKLAEKHGVSVYAIRKRSGKERWQELRRQNQSETANKIAEKI”, the “soluble fraction (log2)” value is -1.6.

As to “HMAIDYYQTLINLGYKLQDRGDYWQTSAIHRGGDNPTALQIYKNTGVWKDYVSGGGFKPFKALVEKSD”, the “soluble fraction (log2)” value was -0.802.

As to “HMAIELTPRQLDIIELVRKHAPITGEQIAELLGVTRPSIRSDLGLLVMLGYIDAKPKVGYFAGPRM”, the “soluble fraction (log2)” value is -0.597.

In the case of “HMAIGSRLKVTTDATNLNIRSTPSTEGDIVGKAAHHEIVTLVEKTDDSWWKIKTNDGEEGYAYAQYLSPV”, the “soluble fraction (log2)” value turned out to be 0.12.

Turning to “HMAIIQSNNIFKSQKEIVDEILVELDIPKDKWNFFHMLISSGYKDEFDTNRIYEIIQTNYNMMDR”, the “soluble fraction (log2)” value was -0.205.

As to “HMAILDTALDVLSMNLKDNYTSFQILRQAAIAGKIAFNLTEKNPLGGVIEVELTGDDLETWIEAATW”, the “soluble fraction (log2)” value was -0.115.

Consider “HMAIMISINAKGEVAWNDQIISLDDLAQRFNAAGQQAQKPTVQLRADKESRYDMVAQVMSRASEAGLSDIA”, for which the “soluble fraction (log2)” value is -0.781.

In the case of “HMAIRLIKASREFNVGISTIVEFLEKKGHAIDSDPNSKIPDELYQLIEKEFQTEGSVKKAAKQI”, the “soluble fraction (log2)” value was -0.0914.

For the sequence “HMAITLEVAKKHLEMWLEAESEVAINQSYTIGGKSFTRANLAEIRKQIEYWSNKVAELENLA”, the “soluble fraction (log2)” value came to 0.0438.

As to “HMAITYETKVISGVNLRSAPSTSASVYQLIPKGENIHVVQKVNDYWLKVQTKDGKTGYISASSKYTNYIG”, the “soluble fraction (log2)” value is -0.773.

For the sequence “HMAIWAVFYKNEPFNLKSFNSLTSYPGPKYKKTSFSNPGHALNLAKKLNLTFGTEDFQVVKLTQGTIV”, the “soluble fraction (log2)” value is -2.61.

For “HMAKIEVENLEETILENLKANNGFMPYNDKTSPEEIYEVFHVSKKHFKNSLGGLMKKGLIFQNEKGTKL”, the “soluble fraction (log2)” value was -0.0312.

For the sequence “HMAKITERVMGSAALRDYDPNYLPDEVLKALDGYPPFDGYVYKDGILYARVKIGDTFFIIPPI”, the “soluble fraction (log2)” value is -2.27.

In the case of “HMAKKDVESTLGGRLRVARVRAGLTQVELARMLGMNSVSLSNVEGGRRGLSMKQLVRVAKILEVPVAYLLG”, the “soluble fraction (log2)” value is -1.65.

Regarding “HMAKMPSIIIMKDGVIRTSELEQIERDENWLNEEMKKQHIDNPEDVFLAEFWDGKVNFILQDGKIK”, the “soluble fraction (log2)” value is 0.0716.

Consider “HMAKNDSGLNNHTFNTIRDALQKALTDGPQEAKKLTENLPFPADKIITVIRYLADHDEHFSLEDGIISLT”, for which the “soluble fraction (log2)” value worked out at 0.24.

With “HMAKNIEVPNLVGSTISVARNDLKQLGLHVIVRDSVWSEDKKIDTILEQFPEPGKKLKPEGVVQVVVSI”, the “soluble fraction (log2)” value was -0.408.

On to “HMAKNSVLTIELWNSTAFKWRKDTEPYSESMSVDFNRSVRLTDGISIMFSKFGFVPGIQYLIPLQT”, for which the “soluble fraction (log2)” value is -0.0652.

On to “HMAKQQTTTTAHVVTTGETLYSIAQKNGISVEELKKSNNITSDKLRPGQTLHITKVSKTSSTAK”, for which the “soluble fraction (log2)” value was 0.365.

Regarding “HMAKRPRFEDVIKEINTEIQKRKGKWNLTILSWMDFDDVAQVIRIHIYRKWHLYDPSKPLGPWLNR”, the “soluble fraction (log2)” value was found to be 0.0232.

As to “HMAKSETAKIKATPYGWLRVRDTPSLNGAEIARVNSGDEYKVLEKETGWIKIKVSDTVEGWVSDAYIELS”, the “soluble fraction (log2)” value is -0.0312.

With “HMAKSKYETHVLPNLDKIIKWAKAGATAKEIAANLHIAYSTFRKYLDEGQEGDERYAALSAAFAQA”, the “soluble fraction (log2)” value stood at 0.321.

As for “HMALDLNEDEKLLVELIEKAGGTAGLGELKEASGLSGKKWDKTTKNLSKEGLIKVEKNESGLWVHLT”, the “soluble fraction (log2)” value was determined as 0.153.

With “HMALDLPVKRVKGKEYYYYKVKKGESLYGISKHLGLPLDSIVKSNPSVADGVRKGDMLLFPLEEYT”, the “soluble fraction (log2)” value was -0.307.

For “HMALKQADFDFIRQMIQQRAAIVLDDNKHYFVESRLGPVVEETGSKSLDQLIDQLRSSSNSLLQQKVTEAI”, the “soluble fraction (log2)” value was -0.199.

For “HMALLSDEERIATVFAARLGGYSHQEIYKLLQDRFGPSLPAAYSEKSVLTDLQTALSQVPSL”, the “soluble fraction (log2)” value is -0.208.

For “HMALPEHIEPFLRGLGQALAEGDSYEDVQERLLRAYPYLDSTEFQTALARVIFISDLWGRLN”, the “soluble fraction (log2)” value was -1.55.

For the sequence “HMALPPPELRGATGEAVTALRPAGIALIQGKRYDVLAEGGEWIAAGAAVRVRDIRNGHLIVSDA”, the “soluble fraction (log2)” value was 0.00767.

For the sequence “HMALRFMAYGRINGTNVHFRTGASASTASLGRYSRGTEFGVYDKIGGWYRVRLLSTGQEGYVYSRYLTLTG”, the “soluble fraction (log2)” value is -2.67.

Turning to “HMALSGTVQNFAGGIMILIFRPFKTGDYIEALGYFGKVSEVNIVSTKLRTFDNKTIILPNGALSNGNIQNY”, the “soluble fraction (log2)” value was -0.889.

Turning to “HMALSSQQIKDMQSWYGTKADGIWGSKSTTAAGGRDAGAAYSLYSSNKGRYSSYTDYMSYGGG”, the “soluble fraction (log2)” value came to 0.072.

As for “HMALSTRERMSFVLEVLKEKEFIPFVDLFSPEEGRAGVVVTFLALMELMKDSLIEIVQTKNFGEIHVRARL”, the “soluble fraction (log2)” value is -0.218.

As for “HMALTQEQLGQRLQDARKSVALTQQEVAEDLGLSRESLAQIEAGSRSVNSLEIVRLARLYGRSLSSILLE”, the “soluble fraction (log2)” value was -0.612.

Take “HMALYSEQVSEIEKALMSLPPKYQLVMLLLYAEDLKYEQIAEILDEPIGTVKTKIHRARKILKERF”: the “soluble fraction (log2)” value is -0.46.

As for “HMAMDSGELEAIVDRLISEHPDDWAALTAGDDRERKKKSGFFVGEVMKATRGQADGRAVIELLASRSA”, the “soluble fraction (log2)” value was 0.00605.

“HMAMDYTVVHSDRRTIAIQIQRDGRVVVRAPYAATAEDIRRVVDSHRDWVEKTVRRQQEQLAAS”: the “soluble fraction (log2)” value is -0.0261.

On to “HMAMNITQRHQEILAVIKQEKHITVSEISKLLGVSEVTIRKDFNYLEEKNLIYRHHGGASLNN”, for which the “soluble fraction (log2)” value was -1.58.

With “HMAMPQPVARALHRLGQDISAARRMRRLSQEDLAQRIGTSLSTVRRMEDGYPGTALHTFLRALHML”, the “soluble fraction (log2)” value was -0.261.

As for “HMAMSDFDALSNRISTLSQGRASAVRMKDGIVSLVLDIGGLSAEERKAMTAAIEGEGRGYPSVTQVRILET”, the “soluble fraction (log2)” value amounted to 0.0462.
